Source: paper PMC13397619

B1: NLV2 TCR alpha chain (CDR3α only) (parent)
chain: AGPMKTSYDKVI
partner: MLVPMVATV

Variants of: B1
Assay: T-Switch: Jurkat TCRβ−/− cells expressing a CDR3 saturation-mutagenesis library, stained with two peptide-HLA-A*02:01 tetramers (original and novel peptide) plus anti-CD3, FACS-sorted into four gates, gDNA sequenced
Conditions: with HLA-A*02:01 with peptide … (NLV 3-1, the novel peptide), tetramers 1 µg/mL, 30 min on ice, SP, DP and SW gates expanded about 10 days between rounds ('two to three rounds of selection' in the Methods), gate SW: higher = more of the variant in the gate that binds the novel peptide and not the original one = switched binding. Fold enrichment of the CDR3 variant in one FACS gate of a two-tetramer stain, unresolved parent, parent is a CDR3 fragment, scale: fold enrichment, numbering: sequential-on-construct, sequence starts at 1

Variant | enrichment
[…] (CDR3 as printed); S7P derived by comparing it with the table's wild-type CDR3 AGPMKTSYDKVI | 0
[…] (CDR3 as printed); S7M derived by comparing it with the table's wild-type CDR3 AGPMKTSYDKVI | 0
[…] (CDR3 as printed); T6R derived by comparing it with the table's wild-type CDR3 AGPMKTSYDKVI | 0
[…] (CDR3 as printed); Y8G derived by comparing it with the table's wild-type CDR3 AGPMKTSYDKVI | 0
[…] (CDR3 as printed); T6Y derived by comparing it with the table's wild-type CDR3 AGPMKTSYDKVI | 0
[…] (CDR3 as printed); S7G derived by comparing it with the table's wild-type CDR3 AGPMKTSYDKVI | 0
[…] (CDR3 as printed); P3Q derived by comparing it with the table's wild-type CDR3 AGPMKTSYDKVI | 0
[…] (CDR3 as printed); Y8C derived by comparing it with the table's wild-type CDR3 AGPMKTSYDKVI | 0
[…] (CDR3 as printed); S7I derived by comparing it with the table's wild-type CDR3 AGPMKTSYDKVI | 0
[…] (CDR3 as printed); V11H derived by comparing it with the table's wild-type CDR3 AGPMKTSYDKVI | 0
[…] (CDR3 as printed); M4P derived by comparing it with the table's wild-type CDR3 AGPMKTSYDKVI | 0
[…] (CDR3 as printed); Y8D derived by comparing it with the table's wild-type CDR3 AGPMKTSYDKVI | 0.474
[…] (CDR3 as printed); S7H derived by comparing it with the table's wild-type CDR3 AGPMKTSYDKVI | 0
[…] (CDR3 as printed); T6G derived by comparing it with the table's wild-type CDR3 AGPMKTSYDKVI | 0
[…] (CDR3 as printed); P3W derived by comparing it with the table's wild-type CDR3 AGPMKTSYDKVI | 0
[…] (CDR3 as printed); S7D derived by comparing it with the table's wild-type CDR3 AGPMKTSYDKVI | 0
[…] (CDR3 as printed); M4H derived by comparing it with the table's wild-type CDR3 AGPMKTSYDKVI | 0
[…] (CDR3 as printed); T6M derived by comparing it with the table's wild-type CDR3 AGPMKTSYDKVI | 0
[…] (CDR3 as printed); T6H derived by comparing it with the table's wild-type CDR3 AGPMKTSYDKVI | 0
[…] (CDR3 as printed); T6A derived by comparing it with the table's wild-type CDR3 AGPMKTSYDKVI | 0
[…] (CDR3 as printed); M4K derived by comparing it with the table's wild-type CDR3 AGPMKTSYDKVI | 0
[…] (CDR3 as printed); P3S derived by comparing it with the table's wild-type CDR3 AGPMKTSYDKVI | 0
[…] (CDR3 as printed); P3R derived by comparing it with the table's wild-type CDR3 AGPMKTSYDKVI | 0
[…] (CDR3 as printed); S7W derived by comparing it with the table's wild-type CDR3 AGPMKTSYDKVI | 0
[…] (CDR3 as printed); M4I derived by comparing it with the table's wild-type CDR3 AGPMKTSYDKVI | 0
[…] (CDR3 as printed); P3H derived by comparing it with the table's wild-type CDR3 AGPMKTSYDKVI | 0
[…] (CDR3 as printed); V11Q derived by comparing it with the table's wild-type CDR3 AGPMKTSYDKVI | 0
[…] (CDR3 as printed); P3I derived by comparing it with the table's wild-type CDR3 AGPMKTSYDKVI | 0

Variant | enrichment
[…] (CDR3 as printed); M4V derived by comparing it with the table's wild-type CDR3 AGPMKTSYDKVI | 0
[…] (CDR3 as printed); V11M derived by comparing it with the table's wild-type CDR3 AGPMKTSYDKVI | 0
[…] (CDR3 as printed); P3F derived by comparing it with the table's wild-type CDR3 AGPMKTSYDKVI | 0
[…] (CDR3 as printed); T6I derived by comparing it with the table's wild-type CDR3 AGPMKTSYDKVI | 0
[…] (CDR3 as printed); V11L derived by comparing it with the table's wild-type CDR3 AGPMKTSYDKVI | 0
[…] (CDR3 as printed); T6W derived by comparing it with the table's wild-type CDR3 AGPMKTSYDKVI | 0
[…] (CDR3 as printed); Y8R derived by comparing it with the table's wild-type CDR3 AGPMKTSYDKVI | 0
[…] (CDR3 as printed); M4G derived by comparing it with the table's wild-type CDR3 AGPMKTSYDKVI | 0
[…] (CDR3 as printed); Y8W derived by comparing it with the table's wild-type CDR3 AGPMKTSYDKVI | 0
[…] (CDR3 as printed); S7N derived by comparing it with the table's wild-type CDR3 AGPMKTSYDKVI | 0
[…] (CDR3 as printed); T6K derived by comparing it with the table's wild-type CDR3 AGPMKTSYDKVI | 0.282
[…] (CDR3 as printed); V11W derived by comparing it with the table's wild-type CDR3 AGPMKTSYDKVI | 0
[…] (CDR3 as printed); P3T derived by comparing it with the table's wild-type CDR3 AGPMKTSYDKVI | 0
[…] (CDR3 as printed); T6D derived by comparing it with the table's wild-type CDR3 AGPMKTSYDKVI | 0
[…] (CDR3 as printed); T6V derived by comparing it with the table's wild-type CDR3 AGPMKTSYDKVI | 0
[…] (CDR3 as printed); S7V derived by comparing it with the table's wild-type CDR3 AGPMKTSYDKVI | 0
[…] (CDR3 as printed); Y8Q derived by comparing it with the table's wild-type CDR3 AGPMKTSYDKVI | 27.8
[…] (CDR3 as printed); V11T derived by comparing it with the table's wild-type CDR3 AGPMKTSYDKVI | 0
[…] (CDR3 as printed); P3M derived by comparing it with the table's wild-type CDR3 AGPMKTSYDKVI | 0
[…] (CDR3 as printed); V11P derived by comparing it with the table's wild-type CDR3 AGPMKTSYDKVI | 0
[…] (CDR3 as printed); S7C derived by comparing it with the table's wild-type CDR3 AGPMKTSYDKVI | 0
[…] (CDR3 as printed); P3V derived by comparing it with the table's wild-type CDR3 AGPMKTSYDKVI | 0.657
[…] (CDR3 as printed); P3Y derived by comparing it with the table's wild-type CDR3 AGPMKTSYDKVI | 0
[…] (CDR3 as printed); T6S derived by comparing it with the table's wild-type CDR3 AGPMKTSYDKVI | 0
[…] (CDR3 as printed); T6Q derived by comparing it with the table's wild-type CDR3 AGPMKTSYDKVI | 0
[…] (CDR3 as printed); S7Y derived by comparing it with the table's wild-type CDR3 AGPMKTSYDKVI | 0
[…] (CDR3 as printed); Y8L derived by comparing it with the table's wild-type CDR3 AGPMKTSYDKVI | 0
